We go through 61 molecules from US20160279215A1, “NOVEL PEPTIDES AND COMBINATION OF PEPTIDES FOR USE IN IMMUNOTHERAPY AGAINST VARIOUS TUMORS” (immatics biotechnologies GmbH, priority 2015, published 2016).

The labels stand for the following.
B1: HLLGEGAFAQV (peptide)
peptide: HLLGEGAFAQV
B2: AVFNLVHVV (peptide)
peptide: AVFNLVHVV
B3: ALLEQTGDMSL (peptide)
peptide: ALLEQTGDMSL
B4: LLLEAVWHL (peptide)
peptide: LLLEAVWHL
B5: YLVPGLVAA (peptide)
peptide: YLVPGLVAA
B6: LLWGHPRVALA (peptide)
peptide: LLWGHPRVALA
notes: also called MXRA5-003
B7: ALLQALMEL (peptide)
peptide: ALLQALMEL
B8: TLLTFFHEL (peptide)
peptide: TLLTFFHEL
B9: VLEDKVLSV (peptide)
peptide: VLEDKVLSV
B10: FLPVSVVYV (peptide)
peptide: FLPVSVVYV
B11: FLMKNSDLYGA (peptide)
peptide: FLMKNSDLYGA
B12: ALAGIVTNV (peptide)
peptide: ALAGIVTNV
B13: VIIKGLEEITV (peptide)
peptide: VIIKGLEEITV
B14: ALADGIKSFLL (peptide)
peptide: ALADGIKSFLL
B15: GLVDIMVHL (peptide)
peptide: GLVDIMVHL
B16: FLLDKPQDLSI (peptide)
peptide: FLLDKPQDLSI
B17: KLIDHQGLYL (peptide)
peptide: KLIDHQGLYL
B18: KVWSDVTPL (peptide)
peptide: KVWSDVTPL
notes: also called MMP-002
B19: GLNGFNVLL (peptide)
peptide: GLNGFNVLL
B20: NVAEIVIHI (peptide)
peptide: NVAEIVIHI
B21: KLLPMVIQL (peptide)
peptide: KLLPMVIQL
B22: KIWEELSVLEV (peptide)
peptide: KIWEELSVLEV
notes: also called MAGEA3-003
B23: ALYPKEITL (peptide)
peptide: ALYPKEITL
B24: QLMNLIRSV (peptide)
peptide: QLMNLIRSV
B25: SIIEYLPTL (peptide)
peptide: SIIEYLPTL
B26: GLLETTGLLAT (peptide)
peptide: GLLETTGLLAT
B27: GLAALAVHL (peptide)
peptide: GLAALAVHL
B28: YLLDMPLWYL (peptide)
peptide: YLLDMPLWYL
B29: ALSELLQQV (peptide)
peptide: ALSELLQQV
B30: YLFSQGLQGL (peptide)
peptide: YLFSQGLQGL
B31: KLQEELNKV (peptide)
peptide: KLQEELNKV
B32: VLDGKVAVV (peptide)
peptide: VLDGKVAVV
B33: KLQEEIPVL (peptide)
peptide: KLQEEIPVL
B34: FLTEMVHFI (peptide)
peptide: FLTEMVHFI
B35: KMSELQTYV (peptide)
peptide: KMSELQTYV
B36: LLWGNLPEI (peptide)
peptide: LLWGNLPEI
B37: VLMQDSRLYL (peptide)
peptide: VLMQDSRLYL
B38: MLLDTVQKV (peptide)
peptide: MLLDTVQKV
B39: YLYQILQGI (peptide)
peptide: YLYQILQGI
B40: IITEVITRL (peptide)
peptide: IITEVITRL
B41: YLEDGFAYV (peptide)
peptide: YLEDGFAYV
B42: KQFEGTVEI (peptide)
peptide: KQFEGTVEI
B43: SLVENIHVL (peptide)
peptide: SLVENIHVL
B44: TLYNPERTITV (peptide)
peptide: TLYNPERTITV
notes: also called IGF-004
B45: FLNDIFERI (peptide)
peptide: FLNDIFERI
B46: KLLAVIHEL (peptide)
peptide: KLLAVIHEL
notes: also called RAD54B-002
B47: IVTEIISEI (peptide)
peptide: IVTEIISEI
B48: VLIEYNFSI (peptide)
peptide: VLIEYNFSI
B49: VLFGELPAL (peptide)
peptide: VLFGELPAL
B50: LMQDSRLYL (peptide)
peptide: LMQDSRLYL
B51: TLNTLDINL (peptide)
peptide: TLNTLDINL
B52: GLLGKVTSV (peptide)
peptide: GLLGKVTSV
B53: RMPTVLQCV (peptide)
peptide: RMPTVLQCV
B54: TVLQELINV (peptide)
peptide: TVLQELINV
B55: ALNESLVEC (peptide)
peptide: ALNESLVEC
B56: KISDFGLATV (peptide)
peptide: KISDFGLATV
B57: HLFDKIIKI (peptide)
peptide: HLFDKIIKI
B58: ILLSVLHQL (peptide)
peptide: ILLSVLHQL
B59: HLWGHALFL (peptide)
peptide: HLWGHALFL
B60: FLIENLLAA (peptide)
peptide: FLIENLLAA
B61: SLFESLEYL (peptide)
peptide: SLFESLEYL
notes: also called ZFP42-001

The target of this test is T1, HLA-A*02:01 (human).
T1 construct: MHC monomers captured on streptavidin plates; the UV-sensitive peptide is cleaved and exchanged with the test peptide; also called peptide-receptive MHC molecules; MHC class I
The experiment in a line: UV ligand-exchange ELISA (anti-b2m); +++ = exchange yield >=50. From the text: Candidate peptides for T cell based therapies according to the present invention were further tested for their MHC binding capacity (affinity). The individual peptide-MHC complexes were produced by UV-ligand exchange, where a UV-sensitive peptide is cleaved upon UV-irradiation, and exchanged with the peptide of interest as analyzed. Only peptide candidates that can effectively bind and stabilize the peptide-receptive MHC molecules prevent dissociation of the MHC complexes. To determine the yield of the exchange reaction, an ELISA was performed based on the detection of the light chain (β2m) of stabilized MHC complexes. The assay was performed as generally described in Rodenko et al. (Rodenko et al., 2006).
96 well MAXISorp plates (NUNC) were coated over night with 2 ug/ml streptavidin in PBS at room temperature, washed 4× and blocked for 1 h at 37° C. in 2% BSA containing blocking buffer. Refolded HLA-A*02:01/MLA-001 monomers served as standards, covering the range of 15-500 ng/ml. Peptide-MHC monomers of the UV-exchange reaction were diluted 100 fold in blocking buffer. Samples were incubated for 1 h at 37° C., washed four times, incubated with 2 ug/ml HRP conjugated anti-β2m for 1 h at 37° C., washed again and detected with TMB solution that is stopped with […]. Absorption was measured at 450 nm. Candidate peptides that show a high exchange yield (preferably higher than 50%, most preferred higher than 75%) are generally preferred for a generation and production of antibodies or fragments thereof, and/or T cell receptors or fragments thereof, as they show sufficient avidity to the MHC molecules and prevent dissociation of the MHC complexes.
(In general: ELISA stands for enzyme-linked immunosorbent assay.)
With B1, the peptide exchange yield lay within 50 to 75%.

As for B2, the peptide exchange yield lay within 50 to 75%.

The molecule B3 displayed a peptide exchange yield of 50 to 75%.

In turn, B4 displayed a peptide exchange yield of 50 to 75%.

Take B5: the peptide exchange yield lay within 50 to 75%.

Consider B6, for which the peptide exchange yield was in the range of 50 to 75%.

Regarding B7, the peptide exchange yield lay in the range of 50 to 75%.

B8 had a peptide exchange yield of 50 to 75%.

On to B9, for which the peptide exchange yield is 50 to 75%.

B10 came in with a peptide exchange yield of 50 to 75%.

Molecule B11 gave a peptide exchange yield of 50 to 75%.

Regarding B12, the peptide exchange yield fell in the range of 50 to 75%.

The molecule B13 displayed a peptide exchange yield of 50 to 75%.

With B14, the peptide exchange yield was in the range of 50 to 75%.

For the molecule B15, the peptide exchange yield lay within 50 to 75%.

B16 yielded a peptide exchange yield of 50 to 75%.

On to B17, for which the peptide exchange yield lay within 50 to 75%.

Turning to B18, the peptide exchange yield lay within 50 to 75%.

Molecule B19 yielded a peptide exchange yield of 50 to 75%.

Molecule B20 gave a peptide exchange yield of 50 to 75%.

Regarding B21, the peptide exchange yield lay within 50 to 75%.

Turning to B22, the peptide exchange yield lay within 50 to 75%.

Take B23: the peptide exchange yield was 50 to 75%.

The molecule B24 displayed a peptide exchange yield of 50 to 75%.

Molecule B25 displayed a peptide exchange yield of 50 to 75%.

The molecule B26 displayed a peptide exchange yield of 50 to 75%.

In the case of B27, the peptide exchange yield lay within 50 to 75%.

The molecule B28 gave a peptide exchange yield of 50 to 75%.

Take B29: the peptide exchange yield lay within 50 to 75%.

For B30, the peptide exchange yield is 50 to 75%.

B31 had a peptide exchange yield of 50 to 75%.

B32: the peptide exchange yield was in the range of 50 to 75%.

On to B33, for which the peptide exchange yield lay in the range of 50 to 75%.

With B34, the peptide exchange yield is 50 to 75%.

On to B35, for which the peptide exchange yield was in the range of 50 to 75%.

Consider B36, for which the peptide exchange yield was in the range of 50 to 75%.

In the case of B37, the peptide exchange yield lay in the range of 50 to 75%.

B38 returned a peptide exchange yield of 50 to 75%.

Take B39: the peptide exchange yield lay in the range of 50 to 75%.

With B40, the peptide exchange yield fell in the range of 50 to 75%.

Molecule B41 returned a peptide exchange yield of 50 to 75%.

For B42, the peptide exchange yield was 50 to 75%.

Regarding B43, the peptide exchange yield was in the range of 50 to 75%.

On to B44, for which the peptide exchange yield lay in the range of 50 to 75%.

The molecule B45 displayed a peptide exchange yield of 50 to 75%.

B46 registered a peptide exchange yield of 50 to 75%.

For B47, the peptide exchange yield was in the range of 50 to 75%.

In the case of B48, the peptide exchange yield lay in the range of 50 to 75%.

B49 registered a peptide exchange yield of 50 to 75%.

Molecule B50 registered a peptide exchange yield of 50 to 75%.

B51 returned a peptide exchange yield of 50 to 75%.

As to B52, the peptide exchange yield lay in the range of 50 to 75%.

B53: the peptide exchange yield fell in the range of 50 to 75%.

In turn, B54 gave a peptide exchange yield of 50 to 75%.

As to B55, the peptide exchange yield was in the range of 50 to 75%.

B56 returned a peptide exchange yield of 50 to 75%.

The molecule B57 returned a peptide exchange yield of 50 to 75%.

The molecule B58 registered a peptide exchange yield of 50 to 75%.

B59 displayed a peptide exchange yield of 50 to 75%.

As to B60, the peptide exchange yield was in the range of 50 to 75%.

Molecule B61 had a peptide exchange yield of 50 to 75%.
